Measurements published in paper PMC3351183 (Nucleic Acids Research, 2012).

B1: GB1_HP0315 (HP0315, a VapD protein from Helicobacter pylori, fused with the immunoglobulin-binding domain of streptococcal protein G) (natural protein, Helicobacter pylori 26695)
chain: MYALAFDLKIEILKKEYGEPYNKAYDDLRQELELLGFEWTQGSVYVNYSKENTLAQVYKAINKLSQIEWFKKSVRDIRAFKVEDFSDFTEIVKS
B2: SeMet-substituted GB1_HP0315 (natural protein, Helicobacter pylori 26695)
chain: B1 chain
modifications: selenomethionine in place of methionine (first methionine residue of GB1 and the methionine residue of HP0315)

Key:
[1] = target: the molecule itself; experiment: SEC
[2] = target: the molecule itself; experiment: crystal structure

Protein	stoichiometry N [1]	binding result [2]
B1	2	
B2		binds
